# Data published in patent US20250145694A1 (GUANGDONG FEIPENG BIOLOGICAL, published 2025).
# Molecular target: T1, CTNI quality control recombinant antigen (human, UniProt P19429 1-210, limits assumed)
# T1 construct: Recombinant antigen produced by the applicant; also called CTNI quality control recombinant protein (antigen produced by the company); cardiac troponin I
# Assay: BLI, antibody on AMC sensor, cTnI in solution
# Description: With an AMC sensor, the purified antibody was diluted to 10 μg/ml with PBST, and CTNI quality control recombinant protein (antigen produced by the company) was gradient diluted with PBST to 769.2 nmol/ml, 384.6 nmol/ml, 192.3 nmol/ml, 96.2 nmol/ml, 48.1 nmol/ml, 24 nmol/ml, 12 nmol/ml, and 0 nmol/ml.
# T1 sequence (P19429 whole entry): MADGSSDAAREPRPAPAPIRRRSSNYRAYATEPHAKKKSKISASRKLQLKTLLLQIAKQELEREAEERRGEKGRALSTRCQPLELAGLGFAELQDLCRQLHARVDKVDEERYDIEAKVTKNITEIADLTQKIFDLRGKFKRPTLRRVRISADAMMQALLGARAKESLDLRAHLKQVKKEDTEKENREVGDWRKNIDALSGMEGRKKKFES
Binder,Kd,koff,kon
"Mutation 1-9 (antibody, assembled FR/CDR/constant) heavy: EVQMVESGGGLLKPGGSLKLSCAASGFTFSNYAMSWVRQTPEKRLEWVATISSGGSYSFYPDSVKGRFTISRDNAKNTLYLQMLSLRSEDTAMYYCARRDNYYGSTFMDYWGQGSSVTVSSAKTTPPSVYPLAPGSAAQTNSMVTLGCLVKGYFPEPVTVTWNSGSLSSGVHTFPAVLQSDLYTLSSSVTVPSSTWPSQTVTCNVAHPASSTKVDKKIVPRDCGCKPCICTVPEVSSVFIFPPKPKDVLTITLTPKVTCVVVDISKDDPEVQFSWFVDDVEVHTAQTKPREEQFNSTFRSVSELPIMHQDWLNGKEFKCRVNSAAFPAPIEKTISKTKGRPKAPQVYTIPPPKEQMAKDKVSLTCMITNFFPEDITVEWQWNGQPAENYKNTQPIMDTDGSYFVYSKLNVQKSNWEAGNTFTCSVLHEGLHNHHTEKSLSHSPG light: DIQMTQTSSSLSASLGDRVTISCRASQDITNYLNWYQQKPDGTIKLLIYYTSRLHSGVSSRFSGSGSGTDYSLTISNLEQEDIATYFCQQGNTLPLTFDTGTKLELKRADAAPTVSIFPPSSEQLTSGGASVVCFLNNFYPKDINVKWKIDGSERQNGVLNSWTDQDSKDSTYSMSSTLTLTKDEYERHNSYTCEATHKTSTSPIVKSFNRNEC",8.6 nM,0.000184 s⁻¹,21400 M⁻¹ s⁻¹
"Mutation 1-18 (antibody, assembled FR/CDR/constant) heavy: EVQMVESGGGLLKPGGSLKLSCAASGFTYSNYAMSWVRQTPEKRLEWVATISSGGSYSFYPDSVKGRFTISRDNAKNTLYLQMLSLRSEDTAMYYCARRDNYPGSSFMDYWGQGSSVTVSSAKTTPPSVYPLAPGSAAQTNSMVTLGCLVKGYFPEPVTVTWNSGSLSSGVHTFPAVLQSDLYTLSSSVTVPSSTWPSQTVTCNVAHPASSTKVDKKIVPRDCGCKPCICTVPEVSSVFIFPPKPKDVLTITLTPKVTCVVVDISKDDPEVQFSWFVDDVEVHTAQTKPREEQFNSTFRSVSELPIMHQDWLNGKEFKCRVNSAAFPAPIEKTISKTKGRPKAPQVYTIPPPKEQMAKDKVSLTCMITNFFPEDITVEWQWNGQPAENYKNTQPIMDTDGSYFVYSKLNVQKSNWEAGNTFTCSVLHEGLHNHHTEKSLSHSPG light: DIQMTQTSSSLSASLGDRVTISCRASQEITNYLNWYQQKPDGTIKLLIYYTSRIHSGVSSRFSGSGSGTDYSLTISNLEQEDIATYFCQQGNTLPLTFDTGTKLELKRADAAPTVSIFPPSSEQLTSGGASVVCFLNNFYPKDINVKWKIDGSERQNGVLNSWTDQDSKDSTYSMSSTLTLTKDEYERHNSYTCEATHKTSTSPIVKSFNRNEC",4.4 nM,0.000253 s⁻¹,57500 M⁻¹ s⁻¹
"Mutation 1-13 (antibody, assembled FR/CDR/constant) heavy: EVQMVESGGGLLKPGGSLKLSCAASGFTFSNYAMSWVRQTPEKRLEWVATISSGGSYSFYPDSVKGRFTISRDNAKNTLYLQMLSLRSEDTAMYYCARRDNYPGSSFMDYWGQGSSVTVSSAKTTPPSVYPLAPGSAAQTNSMVTLGCLVKGYFPEPVTVTWNSGSLSSGVHTFPAVLQSDLYTLSSSVTVPSSTWPSQTVTCNVAHPASSTKVDKKIVPRDCGCKPCICTVPEVSSVFIFPPKPKDVLTITLTPKVTCVVVDISKDDPEVQFSWFVDDVEVHTAQTKPREEQFNSTFRSVSELPIMHQDWLNGKEFKCRVNSAAFPAPIEKTISKTKGRPKAPQVYTIPPPKEQMAKDKVSLTCMITNFFPEDITVEWQWNGQPAENYKNTQPIMDTDGSYFVYSKLNVQKSNWEAGNTFTCSVLHEGLHNHHTEKSLSHSPG light: DIQMTQTSSSLSASLGDRVTISCRASQEITNYLNWYQQKPDGTIKLLIYYTSRIHSGVSSRFSGSGSGTDYSLTISNLEQEDIATYFCQQGNTIPLTFDTGTKLELKRADAAPTVSIFPPSSEQLTSGGASVVCFLNNFYPKDINVKWKIDGSERQNGVLNSWTDQDSKDSTYSMSSTLTLTKDEYERHNSYTCEATHKTSTSPIVKSFNRNEC",4.12 nM,0.000354 s⁻¹,86000 M⁻¹ s⁻¹
"Mutation 1-11 (antibody, assembled FR/CDR/constant) heavy: not shown light: DIQMTQTSSSLSASLGDRVTISCRASQDITNYLNWYQQKPDGTIKLLIYYTSRLHSGVSSRFSGSGSGTDYSLTISNLEQEDIATYFCQQGNTIPLTFDTGTKLELKRADAAPTVSIFPPSSEQLTSGGASVVCFLNNFYPKDINVKWKIDGSERQNGVLNSWTDQDSKDSTYSMSSTLTLTKDEYERHNSYTCEATHKTSTSPIVKSFNRNEC",4.4 nM,4.75e-05 s⁻¹,10800 M⁻¹ s⁻¹
"Mutation 1-14 (antibody, assembled FR/CDR/constant) heavy: EVQMVESGGGLLKPGGSLKLSCAASGFTYSNYAMSWVRQTPEKRLEWVATISSGGSYSFYPDSVKGRFTISRDNAKNTLYLQMLSLRSEDTAMYYCARRDNYFGSTFMDYWGQGSSVTVSSAKTTPPSVYPLAPGSAAQTNSMVTLGCLVKGYFPEPVTVTWNSGSLSSGVHTFPAVLQSDLYTLSSSVTVPSSTWPSQTVTCNVAHPASSTKVDKKIVPRDCGCKPCICTVPEVSSVFIFPPKPKDVLTITLTPKVTCVVVDISKDDPEVQFSWFVDDVEVHTAQTKPREEQFNSTFRSVSELPIMHQDWLNGKEFKCRVNSAAFPAPIEKTISKTKGRPKAPQVYTIPPPKEQMAKDKVSLTCMITNFFPEDITVEWQWNGQPAENYKNTQPIMDTDGSYFVYSKLNVQKSNWEAGNTFTCSVLHEGLHNHHTEKSLSHSPG light: DIQMTQTSSSLSASLGDRVTISCRASQDITNYLNWYQQKPDGTIKLLIYYTSRLHSGVSSRFSGSGSGTDYSLTISNLEQEDIATYFCQQGHTIPLTFDTGTKLELKRADAAPTVSIFPPSSEQLTSGGASVVCFLNNFYPKDINVKWKIDGSERQNGVLNSWTDQDSKDSTYSMSSTLTLTKDEYERHNSYTCEATHKTSTSPIVKSFNRNEC",7.76 nM,0.000498 s⁻¹,64200 M⁻¹ s⁻¹
"Mutation 1-15 (antibody, assembled FR/CDR/constant) heavy: EVQMVESGGGLLKPGGSLKLSCAASGFTFSNYAMSWVRQTPEKRLEWVATISSGGSYSYYPDSVKGRFTISRDNAKNTLYLQMLSLRSEDTAMYYCARRDNYFGSSFMDYWGQGSSVTVSSAKTTPPSVYPLAPGSAAQTNSMVTLGCLVKGYFPEPVTVTWNSGSLSSGVHTFPAVLQSDLYTLSSSVTVPSSTWPSQTVTCNVAHPASSTKVDKKIVPRDCGCKPCICTVPEVSSVFIFPPKPKDVLTITLTPKVTCVVVDISKDDPEVQFSWFVDDVEVHTAQTKPREEQFNSTFRSVSELPIMHQDWLNGKEFKCRVNSAAFPAPIEKTISKTKGRPKAPQVYTIPPPKEQMAKDKVSLTCMITNFFPEDITVEWQWNGQPAENYKNTQPIMDTDGSYFVYSKLNVQKSNWEAGNTFTCSVLHEGLHNHHTEKSLSHSPG light: DIQMTQTSSSLSASLGDRVTISCRASQEITNYLNWYQQKPDGTIKLLIYYTSRIHSGVSSRFSGSGSGTDYSLTISNLEQEDIATYFCQQGNTLPLTFDTGTKLELKRADAAPTVSIFPPSSEQLTSGGASVVCFLNNFYPKDINVKWKIDGSERQNGVLNSWTDQDSKDSTYSMSSTLTLTKDEYERHNSYTCEATHKTSTSPIVKSFNRNEC",3.8 nM,0.000145 s⁻¹,38100 M⁻¹ s⁻¹
"Mutation 1-17 (antibody, assembled FR/CDR/constant) heavy: EVQMVESGGGLLKPGGSLKLSCAASGFTFSNYAMSWVRQTPEKRLEWVATISSGGSYSFYPDSVKGRFTISRDNAKNTLYLQMLSLRSEDTAMYYCARRDNYYGSSFMDYWGQGSSVTVSSAKTTPPSVYPLAPGSAAQTNSMVTLGCLVKGYFPEPVTVTWNSGSLSSGVHTFPAVLQSDLYTLSSSVTVPSSTWPSQTVTCNVAHPASSTKVDKKIVPRDCGCKPCICTVPEVSSVFIFPPKPKDVLTITLTPKVTCVVVDISKDDPEVQFSWFVDDVEVHTAQTKPREEQFNSTFRSVSELPIMHQDWLNGKEFKCRVNSAAFPAPIEKTISKTKGRPKAPQVYTIPPPKEQMAKDKVSLTCMITNFFPEDITVEWQWNGQPAENYKNTQPIMDTDGSYFVYSKLNVQKSNWEAGNTFTCSVLHEGLHNHHTEKSLSHSPG light: DIQMTQTSSSLSASLGDRVTISCRASQDITNYLNWYQQKPDGTIKLLIYYTSRLHSGVSSRFSGSGSGTDYSLTISNLEQEDIATYFCQQGHTIPLTFDTGTKLELKRADAAPTVSIFPPSSEQLTSGGASVVCFLNNFYPKDINVKWKIDGSERQNGVLNSWTDQDSKDSTYSMSSTLTLTKDEYERHNSYTCEATHKTSTSPIVKSFNRNEC",9.22 nM,0.000336 s⁻¹,36400 M⁻¹ s⁻¹
"Mutation 1-12 (antibody, assembled FR/CDR/constant) heavy: EVQMVESGGGLLKPGGSLKLSCAASGFTYSNYAMSWVRQTPEKRLEWVATISSGGSYSYYPDSVKGRFTISRDNAKNTLYLQMLSLRSEDTAMYYCARRDNYPGSTFMDYWGQGSSVTVSSAKTTPPSVYPLAPGSAAQTNSMVTLGCLVKGYFPEPVTVTWNSGSLSSGVHTFPAVLQSDLYTLSSSVTVPSSTWPSQTVTCNVAHPASSTKVDKKIVPRDCGCKPCICTVPEVSSVFIFPPKPKDVLTITLTPKVTCVVVDISKDDPEVQFSWFVDDVEVHTAQTKPREEQFNSTFRSVSELPIMHQDWLNGKEFKCRVNSAAFPAPIEKTISKTKGRPKAPQVYTIPPPKEQMAKDKVSLTCMITNFFPEDITVEWQWNGQPAENYKNTQPIMDTDGSYFVYSKLNVQKSNWEAGNTFTCSVLHEGLHNHHTEKSLSHSPG light: DIQMTQTSSSLSASLGDRVTISCRASQEITNYLNWYQQKPDGTIKLLIYYTSRLHSGVSSRFSGSGSGTDYSLTISNLEQEDIATYFCQQGHTLPLTFDTGTKLELKRADAAPTVSIFPPSSEQLTSGGASVVCFLNNFYPKDINVKWKIDGSERQNGVLNSWTDQDSKDSTYSMSSTLTLTKDEYERHNSYTCEATHKTSTSPIVKSFNRNEC",1.52 nM,0.000135 s⁻¹,88600 M⁻¹ s⁻¹
"Mutation 1-10 (antibody, assembled FR/CDR/constant) heavy: EVQMVESGGGLLKPGGSLKLSCAASGFTYSNYAMSWVRQTPEKRLEWVATISSGGSYSFYPDSVKGRFTISRDNAKNTLYLQMLSLRSEDTAMYYCARRDNYYGSSFMDYWGQGSSVTVSSAKTTPPSVYPLAPGSAAQTNSMVTLGCLVKGYFPEPVTVTWNSGSLSSGVHTFPAVLQSDLYTLSSSVTVPSSTWPSQTVTCNVAHPASSTKVDKKIVPRDCGCKPCICTVPEVSSVFIFPPKPKDVLTITLTPKVTCVVVDISKDDPEVQFSWFVDDVEVHTAQTKPREEQFNSTFRSVSELPIMHQDWLNGKEFKCRVNSAAFPAPIEKTISKTKGRPKAPQVYTIPPPKEQMAKDKVSLTCMITNFFPEDITVEWQWNGQPAENYKNTQPIMDTDGSYFVYSKLNVQKSNWEAGNTFTCSVLHEGLHNHHTEKSLSHSPG light: DIQMTQTSSSLSASLGDRVTISCRASQDITNYLNWYQQKPDGTIKLLIYYTSRIHSGVSSRFSGSGSGTDYSLTISNLEQEDIATYFCQQGHTLPLTFDTGTKLELKRADAAPTVSIFPPSSEQLTSGGASVVCFLNNFYPKDINVKWKIDGSERQNGVLNSWTDQDSKDSTYSMSSTLTLTKDEYERHNSYTCEATHKTSTSPIVKSFNRNEC",5.05 nM,0.000346 s⁻¹,68500 M⁻¹ s⁻¹
